For this assay, the target named is full-length MDGI (mammary-derived growth inhibitor) expressed from the pcDNA3-9E10 plasmid as a c-Myc fusion protein (mouse) (UniProt P11404). Kind of assay: phage binding to U2OS cells transiently transfected with MDGI, 2 h at 4 C, bound phage titrated.

Where no end group is shown, it is not given here.

As to CGLSGLGVA (peptide, not shown: large carriers, also: displayed on T7 phage capsid protein) [CooP displaying phage (phage 36), peptide sequence …], the fold increase of phage binding compared to the original library was determined as 10 fold.

Values taken from patent US20150212086A1.
